From patent US7803749B2, “Peptide inhibitors of MKK7 kinase binding to insulin binding proteins” (Xigen SA, priority 2002, dated 2010)
“Also recorded” adds a separate entry of the source. Residues, ends and D or L forms follow the SMILES beside them.

Legend:
[1] = system: developing rat cortical neurons; assay: Incubation of developing rat cortical neurons with peptide (necrotic bodies, neuron number); settings: 1 μM, vs control neurons, FIGS. 4A-4F
[2] = biological target: T1, MKK7 binding to IB1 (SH3 domain) (Homo sapiens, UniProt Q9UQF2); assay: Pull-down of 35S-labelled MKK7 with GST-SH3 domain of IB1; settings: FIG. 2
T1 construct: the SH3 domains of IB1 and IB2 were subcloned using PCR into the pGEX-4T1 vector in frame with the GST; made in house; host or cells: E. coli
T1 sequence (Q9UQF2 488-549 limits assumed): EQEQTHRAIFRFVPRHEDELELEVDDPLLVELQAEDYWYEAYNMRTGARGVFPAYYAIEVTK
Description: (§1) Effects of the αSH3 peptide on JNK biological activities were then studied. […] In the pull-down experiments, the SH3 domains of IB1 and IB2 were subcloned using PCR into the pGEX-4T1 vector in frame with the GST (Pharmacia). The recombinant proteins were produced in E. Coli. Purification was performed in native conditions using a glutathione-agarose column (Pharmacia). ^35S-labelled MKK7 was then used in classical pull-down experiments.

[3] = biological target: T2, MKK7 binding to IB2 (SH3 domain) (Homo sapiens, UniProt Q13387); assay: Pull-down of 35S-labelled MKK7 with GST-SH3 domain of IB2; settings: FIG. 2
T2 construct: the SH3 domains of IB1 and IB2 were subcloned using PCR into the pGEX-4T1 vector in frame with the GST; made in house; host or cells: E. coli
T2 sequence (Q13387 604-665 limits assumed): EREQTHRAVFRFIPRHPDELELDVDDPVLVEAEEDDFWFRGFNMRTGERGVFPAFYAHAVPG
Description: as §1

Compound | Toxicity on developing neurons (appearance of residual necrotic bodies) [1] | Blocking of the binding of MKK7 to IB1 [2] | Blocking of the binding of MKK7 to IB2 [3]
CSCC[C@H](NC(=O)CNC(=O)[C@@H](NC(=O)[C@H](CO)NC(=O)[C@@H](NC(=O)[C@H](CO)NC(=O)[C@H](CCCNC(=N)N)NC(=O)[C@H](CCCNC(=N)N)NC(=O)[C@H](CCCNC(=N)N)NC(=O)[C@H](CCC(N)=O)NC(=O)[C@H](CCCNC(=N)N)NC(=O)[C@H](CCCNC(=N)N)NC(=O)[C@H](CCCCN)NC(=O)[C@H](CCCCN)NC(=O)[C@@H](N)CCCNC(=N)N)C(C)C)C(C)C)C(=O)N1CCC[C@H]1C(=O)N1CCC[C@H]1C(=O)N[C@@H](CO)C(=O)N1CCC[C@H]1C(=O)N[C@@H](CCCNC(=N)N)C(=O)N1CCC[C@H]1C(=O)O [TAT-αSH3] (H-RKKRRQRRRSVSVGMPPSPRP-OH) | lacked residual necrotic bodies; also recorded: not toxic |  | 
αSH3: consensus αSH3 sequence SVSVGMPPSPRP, 12 aa |  | efficiently blocks | efficiently blocks
